Source: paper PMC8980893, “A fusion of the Bacteroides fragilis ferrous iron import proteins reveals a role for FeoA in stabilizing GTP-bound FeoB” (The Journal of Biological Chemistry, 2022)

Columns and labels:
BfNFeoAB = molecular target: T1, BfNFeoAB (Bacteroides fragilis, UniProt Q5LFM5); assay: hydrogen-deuterium exchange mass spectrometry; format: binding; conditions: 25 mM Tris pD 7.5, 300 mM NaCl, 2% glycerol, 1 mM TCEP, 25 °C
T1 construct: gene BF9343_1287; N-terminal soluble domain of natural FeoAB fusion (FeoA, linker, G-protein and GDI domains), residues 1-438, without transmembrane region; from E. coli C43(DE3) deltaacrB; monomer, about 53 kDa; PDB 7R7B covers FeoA residues 1-74 only
T1 sequence (Q5LFM5 1-438): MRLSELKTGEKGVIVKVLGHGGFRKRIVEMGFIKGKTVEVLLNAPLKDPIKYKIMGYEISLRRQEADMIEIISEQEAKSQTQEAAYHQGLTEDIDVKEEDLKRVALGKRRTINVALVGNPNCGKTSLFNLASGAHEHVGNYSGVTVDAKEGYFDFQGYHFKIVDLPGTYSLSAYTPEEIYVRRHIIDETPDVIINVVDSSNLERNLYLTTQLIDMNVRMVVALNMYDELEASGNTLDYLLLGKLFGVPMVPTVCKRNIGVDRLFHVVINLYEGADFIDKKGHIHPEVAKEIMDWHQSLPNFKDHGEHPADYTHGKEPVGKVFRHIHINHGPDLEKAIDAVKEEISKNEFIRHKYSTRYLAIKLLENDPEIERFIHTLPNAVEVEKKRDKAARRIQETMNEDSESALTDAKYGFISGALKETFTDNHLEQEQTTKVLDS

[1] = molecular target: NFeoB region (G-protein domain and GDI domain) of Bacteroides fragilis FeoAB (Bacteroides fragilis)
[2] = molecular target: soluble N-terminal domain of Bacteroides fragilis FeoAB (FeoA fused to the N-terminal GTP-binding domain of FeoB) (Bacteroides fragilis); assay: SEC; 120-ml Superdex 200, 4 °C, 25 mM Tris pH 7.5, 300 mM NaCl, 2% glycerol, 1 mM TCEP; after IMAC

Compound: Nc1nc2c(ncn2[C@@H]2O[C@H](COP(=O)(O)OP(=O)(O)O)[C@@H](O)[C@H]2O)c(=O)[nH]1 [GDP]
- hydrogen-deuterium exchange mass spectrometry (BfNFeoAB; 5 mM GDP): binding of GDP elicits a mixture of protein protection and deprotection

Compound: Nc1nc2c(ncn2[C@@H]2O[C@H](COP(=O)(O)OP(=O)(O)NP(=O)(O)O)[C@@H](O)[C@H]2O)c(=O)[nH]1 [GMP-PNP]
- hydrogen-deuterium exchange mass spectrometry (BfNFeoAB; 5 mM GMP-PNP, nonhydrolyzable GTP analog): Binding of the nonhydrolyzable GTP analog with GMP-PNP elicits increases in protein protection

Compound: FeoA domain of Bacteroides fragilis FeoAB (domain or fragment)
- kcat of GTP hydrolysis by BfNFeoAB (FeoA present on the chain), 1D-31P NMR, 37 °C [1]: 0.00071 s⁻¹
- kcat of GTP hydrolysis by BfNFeoB-L (FeoA deleted), malachite green assay, 37 °C [1]: 0.037 s⁻¹

Compound: soluble N-terminal domain of Bacteroides fragilis FeoAB (FeoA fused to the N-terminal GTP-binding domain of FeoB) (domain or fragment)
- stoichiometry N [2]: 3
